The values below come from article PMC9011129.

Where two headings read alike, the source gives them in different places.

In data set [1] the target is T1, Larp-DM15 (Drosophila melanogaster, UniProt Q9VAW5 1330-1481). In words: EMSA. On the technique in general: Mobility shift assays separate free from complexed probe on a gel.
Data set [2] deals with T1, Larp-DM15. In words: EMSA. This is another data set of the same source.

T1 sequence (Q9VAW5 1330-1481): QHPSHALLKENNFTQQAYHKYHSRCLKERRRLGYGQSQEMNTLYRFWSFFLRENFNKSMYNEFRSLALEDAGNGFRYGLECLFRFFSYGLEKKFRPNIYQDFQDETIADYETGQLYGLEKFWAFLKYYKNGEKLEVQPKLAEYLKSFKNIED

For the molecule CUUUUGCCAUUGUCAGCCGACGAAGUGCUUUAACCCAAACUA (ssRNA, 5' cap (Vaccinia capping system)) [RpL30 42-mer], in data set [1], the binding result is “binds”.

Take GAAAAGCCAUUGUCAGCCGACGAAGUGCUUUAACCCAAACUA (ssRNA, 5' cap (Vaccinia capping system)) [Purine-substituted RpL30 control]: the binding result in data set [1] is recorded as “no binding”.

CUUUUUGGAAUACGAAGCUGACACCGCGUGGUGUUUUUGCUU (ssRNA, 5' cap (Vaccinia capping system)) [Non1 42-mer]: the binding result in data set [2] was “binds”.
